From paper PMC2621353, “Residues Clustered in the Light-Sensing Knot of Phytochrome B are Necessary for Conformer-Specific Binding to Signaling Partner PIF3” (PLoS Genetics, 2009)

B1: full-length phytochrome B (phyB), wild type, in vitro translated [modified: 35S-methionine labelled; 35S-methionine labelled] [Arabidopsis thaliana] / GAD-PIF3, in vitro translated [modified: 35S-methionine labelled … (parent)
chain 1: MVSGVGGSGGGRGGGRGGEEEPSSSHTPNNRRGGEQAQSSGTKSLRPRSNTESMSKAIQQYTVDARLHAVFEQSGESGKSFDYSQSLKTTTYGSSVPEQQITAYLSRIQRGGYIQPFGCMIAVDESSFRIIGYSENAREMLGIMPQSVPTLEKPEILAMGTDVRSLFTSSSSILLERAFVAREITLLNPVWIHSKNTGKPFYAILHRIDVGVVIDLEPARTEDPALSIAGAVQSQKLAVRAISQLQALPGGDIKLLCDTVVESVRDLTGYDRVMVYKFHEDEHGEVVAESKRDDLEPYIGLHYPATDIPQASRFLFKQNRVRMIVDCNATPVLVVQDDRLTQSMCLVGSTLRAPHGCHSQYMANMGSIASLAMAVIINGNEDDGSNVASGRSSMRLWGLVVCHHTSSRCIPFPLRYACEFLMQAFGLQLNMELQLALQMSEKRVLRTQTLLCDMLLRDSPAGIVTQSPSIMDLVKCDGAAFLYHGKYYPLGVAPSEVQIKDVVEWLLANHADSTGLSTDSLGDAGYPGAAALGDAVCGMAVAYITKRDFLFWFRSHTAKEIKWGGAKHHPEDKDDGQRMHPRSSFQAFLEVVKSRSQPWETAEMDAIHSLQLILRDSFKESEAAMNSKVVDGVVQPCRDMAGEQGIDELGAVAREMVRLIETATVPIFAVDAGGCINGWNAKIAELTGLSVEEAMGKSLVSDLIYKENEATVNKLLSRALRGDEEKNVEVKLKTFSPELQGKAVFVVVNACSSKDYLNNIVGVCFVGQDVTSQKIVMDKFINIQGDYKAIVHSPNPLIPPIFAADENTCCLEWNMAMEKLTGWSRSEVIGKMIVGEVFGSCCMLKGPDALTKFMIVLHNAIGGQDTDKFPFPFFDRNGKFVQALLTANKRVSLEGKVIGAFCFLQIPSPELQQALAVQRRQDTECFTKAKELAYICQVIKNPLSGMRFANSLLEATDLNEDQKQLLETSVSCEKQISRIVGDMDLESIEDGSFVLKREEFFLGSVINAIVSQAMFLLRDRGLQLIRDIPEEIKSIEVFGDQIRIQQLLAEFLLSIIRYAPSQEWVEIHLSQLSKQMADGFAAIRTEFRMACPGEGLPPELVRDMFHSSRWTSPEGLGLSVCRKILKLMNGEVQYIRESERSYFLIILELPVPRKRPLSTASGSGDMMLMMPY
chain 2: MPLFELFRLTKAKLESAQDRNPSPPVDEVVELVWENGQISTQSQSSRSRNIPPPQANSSRAREIGNGSKTTMVDEIPMSVPSLMTGLSQDDDFVPWLNHHPSLDGYCSDFLRDVSSPVTVNEQESDMAVNQTAFPLFQRRKDGNESAPAASSSQYNGFQSHSLYGSDRARDLPSQQTNPDRFTQTQEPLITSNKPSLVNFSHFLRPATFAKTTNNNLHDTKEKSPQSPPNVFQTRVLGAKDSEDKVLNESVASATPKDNQKACLISEDSCRKDQESEKAVVCSSVGSGNSLDGPSESPSLSLKRKHSNIQDIDCHSEDVEEESGDGRKEAGPSRTGLGSKRSRSAEVHNLSERRRRDRINEKMRALQELIPNCNKVDKASMLDEAIEYLKSLQLQVQIMSMASGYYLPPAVMFPPGMGHYPAAAAAMAMGMGMPYAMGLPDLSRGGSSVNHGPQFQVSGMQQQPVAMGIPRVSGGGIFAGSSTIGNGSTRDLSGSKDQTTTNNNSNLKPIKRKQGSSDQFCGSS

Variants of: B1
Experiment: in vitro co-immunoprecipitation
Conditions: with GAD-PIF3, in vitro translated [modified: 35S-methionine labelled, GAD-PIF3 as bait, phyB as prey, 35S-met in vitro translated proteins
[1] = phyB in Pfr form, parent: 13, read off a plot
[2] = phyB in Pr form, parent: 1, read off a plot
[3] = phyB in Pfr form, parent: 3.8, read off a plot
[4] = phyB in Pfr form, parent: 9.1, read off a plot
[5] = phyB in Pfr form, parent: 17, read off a plot

chain 1 S343Y
screen value (relative to wild-type phyB Pr = 1) [1]: 1.7 | screen value (relative to wild-type phyB Pr = 1) [2]: 1.4

chain 1 R415W
screen value (relative to wild-type phyB Pr = 1) [3]: 0.58 | screen value (relative to wild-type phyB Pr = 1) [2]: 0.45

chain 1 G348D
screen value (relative to wild-type phyB Pr = 1) [1]: 2.6 | screen value (relative to wild-type phyB Pr = 1) [2]: 1

chain 1 S134G
screen value (relative to wild-type phyB Pr = 1) [4]: 3.1 | screen value (relative to wild-type phyB Pr = 1) [2]: 1.6

chain 1 S367P
screen value (relative to wild-type phyB Pr = 1) [5]: 4.8 | screen value (relative to wild-type phyB Pr = 1) [2]: 2.4

chain 1 P411L
screen value (relative to wild-type phyB Pr = 1) [4]: 4.1 | screen value (relative to wild-type phyB Pr = 1) [2]: 1

chain 1 C119Y
screen value (relative to wild-type phyB Pr = 1) [3]: 0.9 | screen value (relative to wild-type phyB Pr = 1) [2]: 0.45

chain 1 I308T
screen value (relative to wild-type phyB Pr = 1) [5]: 2.3 | screen value (relative to wild-type phyB Pr = 1) [2]: 1

chain 1 L256C
screen value (relative to wild-type phyB Pr = 1) [1]: 2.8 | screen value (relative to wild-type phyB Pr = 1) [2]: 1

chain 1 V264E
screen value (relative to wild-type phyB Pr = 1) [1]: 1.9 | screen value (relative to wild-type phyB Pr = 1) [2]: 2

chain 1 V273L
screen value (relative to wild-type phyB Pr = 1) [5]: 3.9 | screen value (relative to wild-type phyB Pr = 1) [2]: 2

chain 1 C345R
screen value (relative to wild-type phyB Pr = 1) [5]: 5.1 | screen value (relative to wild-type phyB Pr = 1) [2]: 2
